Experiments:
[1] = test system: EGFP-cas3-1 (also called EGFP-EF172cas)
[2] = test system: EGFP-Thr1 (EGFP-E-III-F-N188R)
[3] = test system: EGFP-T/C1 (EGFP-E-III-F-172)
[4] = test system: EGFP-Thr1f (EGFP-E-III-F-FNPRSF)
[5] = test system: EGFP-Thr1e (EGFP-E-III-F-FNPRGF)

Row | Substance | cleavage; 50 mM HEPES buffer with 10% sucrose [1] | Km (µM); 50 mM Tris, 150 mM NaCl, 2.5 mM CaCl2, pH 8.0 [2] [µM] | kcat (s^-1); 50 mM Tris, 150 mM NaCl, 2.5 mM CaCl2, pH 8.0 [2] [s⁻¹] | kcat/Km (M^-1 s^-1); 50 mM Tris, 150 mM NaCl, 2.5 mM CaCl2, pH 8.0 [2] [M⁻¹ s⁻¹] | optical change / cleavage (absorbance at 397 nm, SDS-PAGE, MALDI-MS) [3] | Km (µM); 50 mM Tris, 150 mM NaCl, 2.5 mM CaCl2, pH 8.0 [4] [µM] | fold change in Km compared to the thrombin sensor with cleavage linker (Gly-Arg-Gly) [4] | fold change in kcat compared to the thrombin sensor with cleavage linker (Gly-Arg-Gly) [4] | fold change in kcat/Km compared to the thrombin sensor with cleavage linker (Gly-Arg-Gly) [4] | kcat (s^-1); 50 mM Tris, 150 mM NaCl, 2.5 mM CaCl2, pH 8.0 [4] [s⁻¹] | kcat/Km (M^-1 s^-1); 50 mM Tris, 150 mM NaCl, 2.5 mM CaCl2, pH 8.0 [4] [M⁻¹ s⁻¹] | Km (µM); 50 mM Tris, 150 mM NaCl, 2.5 mM CaCl2, pH 8.0 [5] [µM] | fold change in Km compared to the thrombin sensor with cleavage linker (Gly-Arg-Gly) [5] | fold change in kcat compared to the thrombin sensor with cleavage linker (Gly-Arg-Gly) [5] | fold change in kcat/Km compared to the thrombin sensor with cleavage linker (Gly-Arg-Gly) [5] | kcat (s^-1); 50 mM Tris, 150 mM NaCl, 2.5 mM CaCl2, pH 8.0 [5] [s⁻¹] | kcat/Km (M^-1 s^-1); 50 mM Tris, 150 mM NaCl, 2.5 mM CaCl2, pH 8.0 [5] [M⁻¹ s⁻¹]
1 | active caspase-3 | the cleavage effect was very weak and the cleavage reaction slow | – | – | – | – | – | – | – | – | – | – | – | – | – | – | – | –
2 | thrombin | – | 20.9 | 0.057 | 2770 | this sensor was not cleaved by thrombin and protease type X | 2.86 | Km has great decrease with 10 folds | kcat, has significant increase with 5 folds | substrate specificity (kcat/Km) of these four thrombin sensor variants is resulted in 50-fold increase | 0.23 | 80200 | 2.81 | Km has great decrease with 10 folds | kcat, has significant increase with 5 folds | substrate specificity (kcat/Km) of these four thrombin sensor variants is resulted in 50-fold increase | 0.29 | 105000

Reference: patent US20150010920
